From PMC1950596

Columns and labels:
[1] = target: Psu (polarity suppression protein), wild type, non-His-tagged (bacteriophage P4) (UniProt P05460); assay: SEC
[2] = target: Psu (polarity suppression protein), wild type, non-His-tagged (bacteriophage P4) (UniProt P05460); assay: cross-linking
[3] = target: Δ-CTD10 Psu, His-tagged (pRS459, pET28b) (bacteriophage P4) (UniProt P05460); assay: cross-linking
[4] = target: Psu M6 mutant (P169V) (bacteriophage P4) (UniProt P05460); assay: cross-linking

Psu (polarity suppression protein), wild type, non-His-tagged (from UniProt P05460 1-190) (natural protein)
stoichiometry N [1]: 3
stoichiometry N [2]: 2

Δ-CTD10 Psu, His-tagged (pRS459, pET28b) (from UniProt P05460 1-180) (domain or fragment)
stoichiometry N [3]: 2

Psu M6 mutant (P169V) (from UniProt P05460 1-190) (natural protein)
stoichiometry N [4]: 2
